The values below come from paper PMC6890793, “How water-mediated hydrogen bonds affect chlorophyll a/b selectivity in Water-Soluble Chlorophyll Protein” (Scientific Reports, 2019).

The series concerns the molecule itself. As to the kind of experiment: crystal structure; Chl b-reconstituted WSCP crystallised by hanging-drop vapour diffusion (Lv-wt: 0.1 M Na/K phosphate pH 6.0, 3.0 M (NH4)2SO4, 4.7% sucrose; Bo-wt: 0.1 M (NH4)H2PO4 pH 4.5, 10% PEG 3350); data at 100 K; molecular replacement with the Chl a complexes.

B1: Water-Soluble Chlorophyll Protein (WSCP) from Brassica oleracea var. botrytis, wild type, reconstituted with Chl b (natural protein)
chain: REQVKDSNGNPVKRGAKYFIQPAKSNGGGLVPAAINILPFCPLGITQTLLPYQPGLPVSFGYEPVIVGTDYIYTSTTINIEFRSEIWPVCNELSKLWAVDVSSSAAKEPAIIIGGERTAPNSLFKIEEATGAHTYKLTTSSGTVGTIPGPWLGAPQLIATNDDAKTLFVKFVKVDDDAT
notes: Water-Soluble Chlorophyll Protein (WSCP), Brassica oleracea var. botrytis (cauliflower), wild type; also called Bo-wt; Chl b Bo-wt; source: E. coli, overexpressed, purified; apoprotein reconstituted with Chl b
B1: the binding result is reported as “binds”.
